Source: the supplement of paper PMC9112550, “Optimization of the antimicrobial peptide Bac7 by deep mutational scanning” (BMC Biology, 2022)

System: Escherichia coli TOP10
Assay: shrunken log2 fold change of peptide-encoding DNA abundance (4.5 h post-induction vs induction); higher = less antimicrobial activity (less host growth inhibition)
Details: time post-induction: 4.5 h; library: site-saturation at positions 5, 18, 19, 20
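Note: peptides expressed intracellularly from a pBAD plasmid library in pooled LB shake-flask culture, induced with 0.3% L-arabinose, DNA abundance read by NGS, three biological replicates, DESeq2 with apeglm shrinkage.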

| Sequence | shrunken log2 fold change |
| --- | --- |
| RRIRKRPPRLPRPRPRPVWYPRP | 0.0528 |
| RRIRGRPPRLPRPRPRPNCQPRP | 0.458 |
| RRIRARPPRLPRPRPRPMAKPRP | 0.216 |
| RRIRSRPPRLPRPRPRPLKHPRP | -0.39 |
| RRIRVRPPRLPRPRPRPDVMPRP | -0.00879 |
| RRIRLRPPRLPRPRPRPLPPPRP | 0.678 |
| RRIRTRPPRLPRPRPRPKHHPRP | -0.263 |
| RRIRNRPPRLPRPRPRPVNCPRP | -0.147 |
| RRIRPRPPRLPRPRPRPDMLPRP | -0.147 |
| RRIRARPPRLPRPRPRPPYSPRP | -0.0108 |
| RRIRYRPPRLPRPRPRPIRPPRP | -0.129 |
| RRIRCRPPRLPRPRPRPARHPRP | 0.061 |
| RRIRTRPPRLPRPRPRPKQEPRP | -0.0429 |
| RRIRQRPPRLPRPRPRPSSQPRP | -0.395 |
| RRIRFRPPRLPRPRPRPQLHPRP | 0.381 |
| RRIRVRPPRLPRPRPRPFMLPRP | -0.279 |
| RRIRWRPPRLPRPRPRPGSWPRP | 0.517 |
| RRIRPRPPRLPRPRPRPVEDPRP | 0.0885 |
| RRIRQRPPRLPRPRPRPIWWPRP | 0.127 |
| RRIRPRPPRLPRPRPRPKYQPRP | -0.411 |
| RRIRRRPPRLPRPRPRPHNKPRP | -0.276 |
| RRIRLRPPRLPRPRPRPYMQPRP | -0.297 |
| RRIRARPPRLPRPRPRPRNSPRP | -0.0469 |
| RRIRSRPPRLPRPRPRPWKTPRP | -0.0527 |
| RRIRARPPRLPRPRPRPCVYPRP | 0.121 |

| Sequence | shrunken log2 fold change |
| --- | --- |
| RRIRFRPPRLPRPRPRPRHSPRP | 0.0584 |
| RRIRHRPPRLPRPRPRPVELPRP | 0.115 |
| RRIRVRPPRLPRPRPRPATHPRP | -0.0884 |
| RRIRYRPPRLPRPRPRPTWPPRP | 0.183 |
| RRIRLRPPRLPRPRPRPHHPPRP | -0.316 |
| RRIRFRPPRLPRPRPRPPQGPRP | 0.171 |
| RRIRTRPPRLPRPRPRPVGKPRP | 0.0504 |
| RRIRSRPPRLPRPRPRPLRLPRP | 0.54 |
| RRIRNRPPRLPRPRPRPGEWPRP | 0.00667 |
| RRIRRRPPRLPRPRPRPDNYPRP | -0.323 |
| RRIRERPPRLPRPRPRPGVPPRP | 0.149 |
| RRIRWRPPRLPRPRPRPFLHPRP | -0.772 |
| RRIRMRPPRLPRPRPRPHNQPRP | 0.177 |
| RRIRFRPPRLPRPRPRPTTWPRP | 0.0564 |
| RRIRSRPPRLPRPRPRPKMYPRP | -0.0737 |
| RRIRVRPPRLPRPRPRPSSNPRP | -0.375 |
| RRIRLRPPRLPRPRPRPVQGPRP | -0.01 |
| RRIRDRPPRLPRPRPRPNVCPRP | -0.0195 |
| RRIRGRPPRLPRPRPRPEAQPRP | 1.61 |
| RRIRDRPPRLPRPRPRPNWPPRP | 0.0913 |
| RRIRIRPPRLPRPRPRPEQRPRP | -0.0838 |
| RRIRARPPRLPRPRPRPRHCPRP | -0.0733 |
| RRIRIRPPRLPRPRPRPWKTPRP | -0.197 |
| RRIRLRPPRLPRPRPRPMGFPRP | -0.159 |
| RRIRLRPPRLPRPRPRPMREPRP | 1.25 |

| Sequence | shrunken log2 fold change |
| --- | --- |
| RRIRWRPPRLPRPRPRPMYTPRP | 0.0906 |
| RRIRLRPPRLPRPRPRPNKSPRP | -0.354 |
| RRIRVRPPRLPRPRPRPQAYPRP | -0.00917 |
| RRIRRRPPRLPRPRPRPNKAPRP | 0.158 |
| RRIRQRPPRLPRPRPRPAAGPRP | 0.0657 |
| RRIRYRPPRLPRPRPRPPSDPRP | -0.185 |
| RRIRKRPPRLPRPRPRPGPYPRP | 0.104 |
| RRIRRRPPRLPRPRPRPCEVPRP | -0.0207 |
| RRIRTRPPRLPRPRPRPQVNPRP | -0.587 |
| RRIRDRPPRLPRPRPRPPKQPRP | -0.0537 |
| RRIRVRPPRLPRPRPRPKRYPRP | -0.078 |
| RRIRERPPRLPRPRPRPCDVPRP | -0.017 |
| RRIRKRPPRLPRPRPRPAMAPRP | 0.664 |
| RRIRSRPPRLPRPRPRPSNHPRP | -0.503 |
| RRIRERPPRLPRPRPRPNHYPRP | -1.57 |
| RRIRVRPPRLPRPRPRPEVYPRP | -0.0457 |
| RRIRVRPPRLPRPRPRPFFWPRP | 0.395 |
| RRIRARPPRLPRPRPRPNCPPRP | -0.0021 |
| RRIRVRPPRLPRPRPRPDRGPRP | -0.0555 |
| RRIRERPPRLPRPRPRPRAKPRP | 0.192 |
| RRIRFRPPRLPRPRPRPFTKPRP | -0.411 |
| RRIRYRPPRLPRPRPRPILYPRP | -0.679 |
| RRIRRRPPRLPRPRPRPCGWPRP | 0.776 |
| RRIRERPPRLPRPRPRPEHLPRP | 0.0163 |
| RRIRWRPPRLPRPRPRPDMHPRP | 0.199 |

| Sequence | shrunken log2 fold change |
| --- | --- |
| RRIRERPPRLPRPRPRPFAYPRP | 0.155 |
| RRIRMRPPRLPRPRPRPKVRPRP | 0.00262 |
| RRIRCRPPRLPRPRPRPSHPPRP | -0.0807 |
| RRIRFRPPRLPRPRPRPHLTPRP | -0.226 |
| RRIRPRPPRLPRPRPRPQEEPRP | 0.0679 |
| RRIRARPPRLPRPRPRPTWSPRP | 0.67 |
| RRIRQRPPRLPRPRPRPKKHPRP | -0.236 |
| RRIRHRPPRLPRPRPRPIVSPRP | -0.0219 |
| RRIRHRPPRLPRPRPRPLQQPRP | 0.0446 |
| RRIRVRPPRLPRPRPRPMHDPRP | -0.134 |
| RRIRHRPPRLPRPRPRPHIVPRP | -0.104 |
| RRIRDRPPRLPRPRPRPALFPRP | 0.99 |
| RRIRRRPPRLPRPRPRPAFQPRP | 1.62 |
| RRIRWRPPRLPRPRPRPFRGPRP | 0.0269 |
| RRIRNRPPRLPRPRPRPFGNPRP | 0.0247 |
| RRIRSRPPRLPRPRPRPTECPRP | -0.00271 |
| RRIRFRPPRLPRPRPRPRFQPRP | 0.0731 |
| RRIRCRPPRLPRPRPRPTIYPRP | -0.644 |
| RRIRLRPPRLPRPRPRPDAHPRP | 0.133 |
| RRIRNRPPRLPRPRPRPSPLPRP | -0.334 |
| RRIRFRPPRLPRPRPRPVVIPRP | 0.0715 |
| RRIRCRPPRLPRPRPRPAHPPRP | 0.125 |
| RRIRRRPPRLPRPRPRPYFYPRP | -0.683 |
| RRIRDRPPRLPRPRPRPNKVPRP | -0.494 |
| RRIRMRPPRLPRPRPRPQTVPRP | 0.291 |

| Sequence | shrunken log2 fold change |
| --- | --- |
| RRIRYRPPRLPRPRPRPWKYPRP | -0.0732 |
| RRIRARPPRLPRPRPRPMMDPRP | -0.203 |
| RRIRNRPPRLPRPRPRPELMPRP | 0.232 |
| RRIRVRPPRLPRPRPRPQREPRP | -0.0361 |
| RRIRVRPPRLPRPRPRPARYPRP | 0.0291 |
| RRIRHRPPRLPRPRPRPMEHPRP | -0.337 |
| RRIRKRPPRLPRPRPRPHADPRP | 0.0566 |
| RRIRVRPPRLPRPRPRPCPSPRP | -0.0233 |
| RRIRMRPPRLPRPRPRPSSRPRP | 0.208 |
| RRIRTRPPRLPRPRPRPLTHPRP | -0.0616 |
| RRIRDRPPRLPRPRPRPFYEPRP | -0.262 |
| RRIRARPPRLPRPRPRPSPDPRP | 0.553 |
| RRIRSRPPRLPRPRPRPMKEPRP | -0.338 |
| RRIRMRPPRLPRPRPRPRHRPRP | 0.249 |
| RRIRWRPPRLPRPRPRPFAVPRP | 0.157 |
| RRIRIRPPRLPRPRPRPDYDPRP | -0.00137 |
| RRIRHRPPRLPRPRPRPLDLPRP | 0.441 |
| RRIRYRPPRLPRPRPRPISRPRP | -0.113 |
| RRIRCRPPRLPRPRPRPFQAPRP | 0.0554 |
| RRIRMRPPRLPRPRPRPNEEPRP | -0.0651 |
| RRIRWRPPRLPRPRPRPLHCPRP | -0.444 |
| RRIRPRPPRLPRPRPRPMNIPRP | -0.793 |
| RRIRCRPPRLPRPRPRPDTYPRP | -0.075 |
| RRIRERPPRLPRPRPRPECMPRP | -0.0491 |
| RRIRERPPRLPRPRPRPIAFPRP | 0.0152 |

| Sequence | shrunken log2 fold change |
| --- | --- |
| RRIRIRPPRLPRPRPRPSGCPRP | -0.137 |
| RRIRRRPPRLPRPRPRPQICPRP | -0.0654 |
| RRIRLRPPRLPRPRPRPGHWPRP | 0.279 |
| RRIRKRPPRLPRPRPRPTECPRP | 0.119 |
| RRIRIRPPRLPRPRPRPDVRPRP | 0.0768 |
| RRIRWRPPRLPRPRPRPLMYPRP | -0.0465 |
| RRIRVRPPRLPRPRPRPWESPRP | 0.0528 |
| RRIRKRPPRLPRPRPRPQKKPRP | -0.111 |
| RRIRFRPPRLPRPRPRPTMMPRP | -0.0556 |
| RRIRMRPPRLPRPRPRPFGHPRP | -0.0287 |
| RRIRDRPPRLPRPRPRPAICPRP | 0.391 |
| RRIRVRPPRLPRPRPRPRAGPRP | 0.488 |
| RRIRWRPPRLPRPRPRPYNSPRP | -0.178 |
| RRIRIRPPRLPRPRPRPRDFPRP | -0.157 |
| RRIRLRPPRLPRPRPRPENCPRP | -0.0062 |
| RRIRIRPPRLPRPRPRPYLAPRP | -0.941 |
| RRIRYRPPRLPRPRPRPYSAPRP | -1.51 |
| RRIRIRPPRLPRPRPRPRIGPRP | -0.0469 |
| RRIRTRPPRLPRPRPRPTCFPRP | -0.35 |
| RRIRDRPPRLPRPRPRPDYFPRP | -0.052 |
| RRIRFRPPRLPRPRPRPYGAPRP | -0.193 |
| RRIRSRPPRLPRPRPRPYKSPRP | -0.694 |
| RRIRFRPPRLPRPRPRPFMQPRP | -0.675 |
| RRIRRRPPRLPRPRPRPSVQPRP | 0.184 |
| RRIRFRPPRLPRPRPRPEVNPRP | 0.0557 |
